± gives the uncertainty stated by the source.
Test: abundance fitness (aPCA) (normalised: wild type 0, dead -1); higher = more abundant; growth selection in yeast, the domain comes from the species named
Details: Homo sapiens
For “Scaffold attachment factor B2 L38F, Q14151”, the abundance fitness was -0.455 ± 0.2. In the case of “Scaffold attachment factor B2 L38G, Q14151”, the abundance fitness is reported as -0.664 ± 0.07. Substance “Scaffold attachment factor B2 L38H, Q14151” has an abundance fitness of -0.578 ± 0.13. “Scaffold attachment factor B2 L38I, Q14151” gave an abundance fitness of -0.141 ± 0.13. For “Scaffold attachment factor B2 L38K, Q14151”, the abundance fitness was -0.694 ± 0.12. Work on “Scaffold attachment factor B2 L38M, Q14151” yielded an abundance fitness of -0.139 ± 0.12. Work on “Scaffold attachment factor B2 L38N, Q14151” yielded an abundance fitness of -0.509 ± 0.17. For “Scaffold attachment factor B2 L38P, Q14151”, the abundance fitness was -0.637 ± 0.1. Substance “Scaffold attachment factor B2 L38R, Q14151” has an abundance fitness of -0.787 ± 0.076. In the case of “Scaffold attachment factor B2 L38S, Q14151”, the abundance fitness is reported as -0.506 ± 0.094. “Scaffold attachment factor B2 L38T, Q14151” gave an abundance fitness of -0.544 ± 0.099. “Scaffold attachment factor B2 L38V, Q14151” gave an abundance fitness of -0.863 ± 0.076. “Scaffold attachment factor B2 L38W, Q14151” gave an abundance fitness of -0.791 ± 0.092. In the case of “Scaffold attachment factor B2 L38Y, Q14151”, the abundance fitness is reported as -0.612 ± 0.15. “Scaffold attachment factor B2 L42A, Q14151” gave an abundance fitness of -0.325 ± 0.085. “Scaffold attachment factor B2 L42C, Q14151” gave an abundance fitness of -0.181 ± 0.11. With “Scaffold attachment factor B2 L42E, Q14151” the abundance fitness was -0.381 ± 0.084. “Scaffold attachment factor B2 L42F, Q14151” gave an abundance fitness of -0.994 ± 0.16. For “Scaffold attachment factor B2 L42G, Q14151”, the abundance fitness was -0.439 ± 0.07. “Scaffold attachment factor B2 L42M, Q14151” showed an abundance fitness of -0.505 ± 0.16. For “Scaffold attachment factor B2 L42N, Q14151”, the abundance fitness was -0.606 ± 0.12. “Scaffold attachment factor B2 L42P, Q14151” showed an abundance fitness of -0.358 ± 0.12. Substance “Scaffold attachment factor B2 L42Q, Q14151” has an abundance fitness of -0.827 ± 0.29. For “Scaffold attachment factor B2 L42R, Q14151”, the abundance fitness was -0.668 ± 0.077. Substance “Scaffold attachment factor B2 L42S, Q14151” has an abundance fitness of -0.697 ± 0.089. “Scaffold attachment factor B2 L42T, Q14151” gave an abundance fitness of -0.44 ± 0.12. Substance “Scaffold attachment factor B2 L42W, Q14151” has an abundance fitness of -1.1 ± 0.083. For “Scaffold attachment factor B2 L47A, Q14151”, the abundance fitness was -0.393 ± 0.079. For “Scaffold attachment factor B2 L47C, Q14151”, the abundance fitness was -0.339 ± 0.096. For “Scaffold attachment factor B2 L47D, Q14151”, the abundance fitness was -0.491 ± 0.11. “Scaffold attachment factor B2 L47E, Q14151” showed an abundance fitness of -0.394 ± 0.098. In the case of “Scaffold attachment factor B2 L47G, Q14151”, the abundance fitness is reported as -0.616 ± 0.068. “Scaffold attachment factor B2 L47H, Q14151” showed an abundance fitness of -0.789 ± 0.25. For “Scaffold attachment factor B2 L47I, Q14151”, the abundance fitness was -0.534 ± 0.19. For “Scaffold attachment factor B2 L47K, Q14151”, the abundance fitness was -0.246 ± 0.11. “Scaffold attachment factor B2 L47M, Q14151” showed an abundance fitness of -0.265 ± 0.13. In the case of “Scaffold attachment factor B2 L47N, Q14151”, the abundance fitness is reported as -0.877 ± 0.23. With “Scaffold attachment factor B2 L47P, Q14151” the abundance fitness was -0.194 ± 0.45. “Scaffold attachment factor B2 L47Q, Q14151” showed an abundance fitness of -0.287 ± 0.12. Work on “Scaffold attachment factor B2 L47R, Q14151” yielded an abundance fitness of -0.524 ± 0.076. For “Scaffold attachment factor B2 L47S, Q14151”, the abundance fitness was -0.632 ± 0.093. Substance “Scaffold attachment factor B2 L47T, Q14151” has an abundance fitness of -0.409 ± 0.13. “Scaffold attachment factor B2 L47V, Q14151” gave an abundance fitness of -0.622 ± 0.083. “Scaffold attachment factor B2 L47W, Q14151” showed an abundance fitness of -0.696 ± 0.11. “Scaffold attachment factor B2 L47Y, Q14151” gave an abundance fitness of -0.714 ± 0.1. Substance “Scaffold attachment factor B2 L56A, Q14151” has an abundance fitness of -0.374 ± 0.091. Work on “Scaffold attachment factor B2 L56D, Q14151” yielded an abundance fitness of -0.349 ± 0.13. Work on “Scaffold attachment factor B2 L56F, Q14151” yielded an abundance fitness of -0.816 ± 0.12. “Scaffold attachment factor B2 L56G, Q14151” showed an abundance fitness of -0.285 ± 0.079. Substance “Scaffold attachment factor B2 L56H, Q14151” has an abundance fitness of -0.296 ± 0.094. In the case of “Scaffold attachment factor B2 L56K, Q14151”, the abundance fitness is reported as -0.524 ± 0.096. Substance “Scaffold attachment factor B2 L56M, Q14151” has an abundance fitness of -0.179 ± 0.099. “Scaffold attachment factor B2 L56N, Q14151” showed an abundance fitness of -1.2 ± 0.43. For “Scaffold attachment factor B2 L56P, Q14151”, the abundance fitness was -0.319 ± 0.13. Work on “Scaffold attachment factor B2 L56Q, Q14151” yielded an abundance fitness of -0.378 ± 0.28. “Scaffold attachment factor B2 L56R, Q14151” showed an abundance fitness of -0.39 ± 0.07. “Scaffold attachment factor B2 L56S, Q14151” gave an abundance fitness of -0.434 ± 0.1. For “Scaffold attachment factor B2 L56T, Q14151”, the abundance fitness was -0.546 ± 0.12. “Scaffold attachment factor B2 L56V, Q14151” gave an abundance fitness of -0.369 ± 0.082. Substance “Scaffold attachment factor B2 L56W, Q14151” has an abundance fitness of -0.631 ± 0.086. “Scaffold attachment factor B2 L56Y, Q14151” gave an abundance fitness of -1.01 ± 0.23. Substance “Scaffold attachment factor B2 L60A, Q14151” has an abundance fitness of -0.323 ± 0.094. “Scaffold attachment factor B2 L60C, Q14151” gave an abundance fitness of -0.691 ± 0.14. Substance “Scaffold attachment factor B2 L60D, Q14151” has an abundance fitness of -0.019 ± 0.14. In the case of “Scaffold attachment factor B2 L60F, Q14151”, the abundance fitness is reported as -0.448 ± 0.16. Substance “Scaffold attachment factor B2 L60G, Q14151” has an abundance fitness of -0.25 ± 0.084. “Scaffold attachment factor B2 L60K, Q14151” gave an abundance fitness of -0.204 ± 0.14. “Scaffold attachment factor B2 L60M, Q14151” showed an abundance fitness of -0.343 ± 0.15. Work on “Scaffold attachment factor B2 L60N, Q14151” yielded an abundance fitness of -0.35 ± 0.22. Work on “Scaffold attachment factor B2 L60P, Q14151” yielded an abundance fitness of -0.102 ± 0.14. “Scaffold attachment factor B2 L60Q, Q14151” showed an abundance fitness of -0.271 ± 0.15. For “Scaffold attachment factor B2 L60S, Q14151”, the abundance fitness was -0.398 ± 0.16. Work on “Scaffold attachment factor B2 L60V, Q14151” yielded an abundance fitness of -0.361 ± 0.09. Work on “Scaffold attachment factor B2 M57A, Q14151” yielded an abundance fitness of -0.454 ± 0.087. Substance “Scaffold attachment factor B2 M57C, Q14151” has an abundance fitness of -0.504 ± 0.12. Work on “Scaffold attachment factor B2 M57D, Q14151” yielded an abundance fitness of -0.788 ± 0.18. “Scaffold attachment factor B2 M57E, Q14151” showed an abundance fitness of -0.292 ± 0.11. “Scaffold attachment factor B2 M57G, Q14151” gave an abundance fitness of -0.631 ± 0.09. With “Scaffold attachment factor B2 M57H, Q14151” the abundance fitness was -0.392 ± 0.14. With “Scaffold attachment factor B2 M57I, Q14151” the abundance fitness was -0.319 ± 0.099. Substance “Scaffold attachment factor B2 M57K, Q14151” has an abundance fitness of -0.473 ± 0.13. With “Scaffold attachment factor B2 M57L, Q14151” the abundance fitness was -0.088 ± 0.11. Work on “Scaffold attachment factor B2 M57N, Q14151” yielded an abundance fitness of -0.492 ± 0.14. For “Scaffold attachment factor B2 M57P, Q14151”, the abundance fitness was -0.66 ± 0.093. “Scaffold attachment factor B2 M57Q, Q14151” gave an abundance fitness of -0.364 ± 0.094. Work on “Scaffold attachment factor B2 M57S, Q14151” yielded an abundance fitness of -0.49 ± 0.088. “Scaffold attachment factor B2 M57T, Q14151” gave an abundance fitness of -0.363 ± 0.1. For “Scaffold attachment factor B2 M57V, Q14151”, the abundance fitness was -0.189 ± 0.08. “Scaffold attachment factor B2 M57W, Q14151” showed an abundance fitness of -0.791 ± 0.11. “Scaffold attachment factor B2 N46A, Q14151” gave an abundance fitness of -0.317 ± 0.076. Work on “Scaffold attachment factor B2 N46C, Q14151” yielded an abundance fitness of -0.656 ± 0.12. With “Scaffold attachment factor B2 N46D, Q14151” the abundance fitness was -0.104 ± 0.12. “Scaffold attachment factor B2 N46E, Q14151” showed an abundance fitness of -0.131 ± 0.092. In the case of “Scaffold attachment factor B2 N46G, Q14151”, the abundance fitness is reported as 0.006 ± 0.084. “Scaffold attachment factor B2 N46H, Q14151” showed an abundance fitness of -0.432 ± 0.16. Substance “Scaffold attachment factor B2 N46K, Q14151” has an abundance fitness of -0.214 ± 0.088. With “Scaffold attachment factor B2 N46L, Q14151” the abundance fitness was -0.355 ± 0.087. In the case of “Scaffold attachment factor B2 N46M, Q14151”, the abundance fitness is reported as -0.394 ± 0.17. Substance “Scaffold attachment factor B2 N46P, Q14151” has an abundance fitness of -0.514 ± 0.087. Work on “Scaffold attachment factor B2 N46Q, Q14151” yielded an abundance fitness of 0.023 ± 0.14. Work on “Scaffold attachment factor B2 N46R, Q14151” yielded an abundance fitness of -0.358 ± 0.073. Work on “Scaffold attachment factor B2 N46S, Q14151” yielded an abundance fitness of -0.135 ± 0.088. “Scaffold attachment factor B2 N46T, Q14151” gave an abundance fitness of -0.444 ± 0.099. For “Scaffold attachment factor B2 N46V, Q14151”, the abundance fitness was -0.515 ± 0.081. Work on “Scaffold attachment factor B2 N46W, Q14151” yielded an abundance fitness of -1.28 ± 0.2. “Scaffold attachment factor B2 N46Y, Q14151” gave an abundance fitness of -0.484 ± 0.11. “Scaffold attachment factor B2 N52A, Q14151” showed an abundance fitness of -0.132 ± 0.088. Work on “Scaffold attachment factor B2 N52D, Q14151” yielded an abundance fitness of 0.11 ± 0.13. Work on “Scaffold attachment factor B2 N52E, Q14151” yielded an abundance fitness of 0.123 ± 0.11. “Scaffold attachment factor B2 N52F, Q14151” gave an abundance fitness of -0.701 ± 0.18.
